Literature values in paper PMC10119362.

Biological target: Amyloid-beta monomer (Homo sapiens) (UniProt P05067)

Kd: 23 nM
Substance: Gantenerumab
